# Results taken from patent publication US20260001928A1 (CORTERIA PHARMACEUTICALS, priority 2022, published 2026).
# *1 amine or outer side, *2 acyl side, *3 side chain or, on linkers, in order; H or OH if unused. Primed or numbered codes have the meaning given here. Where no end group is shown, it is not given here. Side-chain parts run from the residue outwards. [ ]: non-standard residue; d: D form. The star is where a group is joined. Thp′ = 4-amino-tetrahydro-2H-pyran-4-yl-acetic acid, O=C(CC1(N[*:1])CCOCC1)[*:2]; C18 diacid = O=C(O)CCCCCCCCCCCCCCCCC(=O)*; γGlu = O=C(O)[C@H](CCC(=O)[*:2])N[*:1]; NMeI = CC[C@H](C)[C@H](NC)C(=O)O; Api = NC1(C(=O)O)CCNCC1; Pentanoyl = CCCCC(=O)*; AEEA = NCCOCCOCC(=O)O; Aib = CC(C)(N)C(=O)O
# B1: SEQ ID NO 194 (peptide)
# peptide: Pentanoyl-VLSLD[dV]PIKLK([γGlu-C18 diacid])KILLEQEKQK[Aib]QREQAETN[Aib]QILAQV-NH2
# SMILES: CCCCC(=O)N[C@H](C(=O)N[C@@H](CC(C)C)C(=O)N[C@@H](CO)C(=O)N[C@@H](CC(C)C)C(=O)N[C@@H](CC(=O)O)C(=O)N[C@@H](C(=O)N1CCC[C@H]1C(=O)N[C@H](C(=O)N[C@@H](CCCCN)C(=O)N[C@@H](CC(C)C)C(=O)N[C@@H](CCCCNC(=O)CC[C@H](NC(=O)CCCCCCCCCCCCCCCCC(=O)O)C(=O)O)C(=O)N[C@@H](CCCCN)C(=O)N[C@H](C(=O)N[C@@H](CC(C)C)C(=O)N[C@@H](CC(C)C)C(=O)N[C@@H](CCC(=O)O)C(=O)N[C@@H](CCC(N)=O)C(=O)N[C@@H](CCC(=O)O)C(=O)N[C@@H](CCCCN)C(=O)N[C@@H](CCC(N)=O)C(=O)N[C@@H](CCCCN)C(=O)NC(C)(C)C(=O)N[C@@H](CCC(N)=O)C(=O)N[C@@H](CCCNC(=N)N)C(=O)N[C@@H](CCC(=O)O)C(=O)N[C@@H](CCC(N)=O)C(=O)N[C@@H](C)C(=O)N[C@@H](CCC(=O)O)C(=O)N[C@H](C(=O)N[C@@H](CC(N)=O)C(=O)NC(C)(C)C(=O)N[C@@H](CCC(N)=O)C(=O)N[C@H](C(=O)N[C@@H](CC(C)C)C(=O)N[C@@H](C)C(=O)N[C@@H](CCC(N)=O)C(=O)N[C@H](C(N)=O)C(C)C)[C@@H](C)CC)[C@@H](C)O)[C@@H](C)CC)[C@@H](C)CC)C(C)C)C(C)C
# B2: SEQ ID NO 195 (peptide)
# peptide: Pentanoyl-VLSLD[dV]PIGLK([γGlu-C18 diacid])KILLEQEKQKKQREQAETN[Aib]QILAQV-NH2
# SMILES: CCCCC(=O)N[C@H](C(=O)N[C@@H](CC(C)C)C(=O)N[C@@H](CO)C(=O)N[C@@H](CC(C)C)C(=O)N[C@@H](CC(=O)O)C(=O)N[C@@H](C(=O)N1CCC[C@H]1C(=O)N[C@H](C(=O)NCC(=O)N[C@@H](CC(C)C)C(=O)N[C@@H](CCCCNC(=O)CC[C@H](NC(=O)CCCCCCCCCCCCCCCCC(=O)O)C(=O)O)C(=O)N[C@@H](CCCCN)C(=O)N[C@H](C(=O)N[C@@H](CC(C)C)C(=O)N[C@@H](CC(C)C)C(=O)N[C@@H](CCC(=O)O)C(=O)N[C@@H](CCC(N)=O)C(=O)N[C@@H](CCC(=O)O)C(=O)N[C@@H](CCCCN)C(=O)N[C@@H](CCC(N)=O)C(=O)N[C@@H](CCCCN)C(=O)N[C@@H](CCCCN)C(=O)N[C@@H](CCC(N)=O)C(=O)N[C@@H](CCCNC(=N)N)C(=O)N[C@@H](CCC(=O)O)C(=O)N[C@@H](CCC(N)=O)C(=O)N[C@@H](C)C(=O)N[C@@H](CCC(=O)O)C(=O)N[C@H](C(=O)N[C@@H](CC(N)=O)C(=O)NC(C)(C)C(=O)N[C@@H](CCC(N)=O)C(=O)N[C@H](C(=O)N[C@@H](CC(C)C)C(=O)N[C@@H](C)C(=O)N[C@@H](CCC(N)=O)C(=O)N[C@H](C(N)=O)C(C)C)[C@@H](C)CC)[C@@H](C)O)[C@@H](C)CC)[C@@H](C)CC)C(C)C)C(C)C
# B3: SEQ ID NO 196 (peptide)
# peptide: Ac-IVLSLD[dV]PIKLK([AEEA-AEEA-γGlu-C18 diacid])KILLEQEKQK[Aib]QREQAETN[Api]QILAQV-NH2
# SMILES: CC[C@H](C)[C@H](NC(C)=O)C(=O)N[C@H](C(=O)N[C@@H](CC(C)C)C(=O)N[C@@H](CO)C(=O)N[C@@H](CC(C)C)C(=O)N[C@@H](CC(=O)O)C(=O)N[C@@H](C(=O)N1CCC[C@H]1C(=O)N[C@H](C(=O)N[C@@H](CCCCN)C(=O)N[C@@H](CC(C)C)C(=O)N[C@@H](CCCCNC(=O)COCCOCCNC(=O)COCCOCCNC(=O)CC[C@H](NC(=O)CCCCCCCCCCCCCCCCC(=O)O)C(=O)O)C(=O)N[C@@H](CCCCN)C(=O)N[C@H](C(=O)N[C@@H](CC(C)C)C(=O)N[C@@H](CC(C)C)C(=O)N[C@@H](CCC(=O)O)C(=O)N[C@@H](CCC(N)=O)C(=O)N[C@@H](CCC(=O)O)C(=O)N[C@@H](CCCCN)C(=O)N[C@@H](CCC(N)=O)C(=O)N[C@@H](CCCCN)C(=O)NC(C)(C)C(=O)N[C@@H](CCC(N)=O)C(=O)N[C@@H](CCCNC(=N)N)C(=O)N[C@@H](CCC(=O)O)C(=O)N[C@@H](CCC(N)=O)C(=O)N[C@@H](C)C(=O)N[C@@H](CCC(=O)O)C(=O)N[C@H](C(=O)N[C@@H](CC(N)=O)C(=O)NC1(C(=O)N[C@@H](CCC(N)=O)C(=O)N[C@H](C(=O)N[C@@H](CC(C)C)C(=O)N[C@@H](C)C(=O)N[C@@H](CCC(N)=O)C(=O)N[C@H](C(N)=O)C(C)C)[C@@H](C)CC)CCNCC1)[C@@H](C)O)[C@@H](C)CC)[C@@H](C)CC)C(C)C)C(C)C
# B4: SEQ ID NO 197 (peptide)
# peptide: Ac-IVLSLD[dV]PIKLK([AEEA-AEEA-γGlu-C18 diacid])KILLEQEKQK[Aib]QREQAETN[Aib]QILAQV-NH2
# SMILES: CC[C@H](C)[C@H](NC(C)=O)C(=O)N[C@H](C(=O)N[C@@H](CC(C)C)C(=O)N[C@@H](CO)C(=O)N[C@@H](CC(C)C)C(=O)N[C@@H](CC(=O)O)C(=O)N[C@@H](C(=O)N1CCC[C@H]1C(=O)N[C@H](C(=O)N[C@@H](CCCCN)C(=O)N[C@@H](CC(C)C)C(=O)N[C@@H](CCCCNC(=O)COCCOCCNC(=O)COCCOCCNC(=O)CC[C@H](NC(=O)CCCCCCCCCCCCCCCCC(=O)O)C(=O)O)C(=O)N[C@@H](CCCCN)C(=O)N[C@H](C(=O)N[C@@H](CC(C)C)C(=O)N[C@@H](CC(C)C)C(=O)N[C@@H](CCC(=O)O)C(=O)N[C@@H](CCC(N)=O)C(=O)N[C@@H](CCC(=O)O)C(=O)N[C@@H](CCCCN)C(=O)N[C@@H](CCC(N)=O)C(=O)N[C@@H](CCCCN)C(=O)NC(C)(C)C(=O)N[C@@H](CCC(N)=O)C(=O)N[C@@H](CCCNC(=N)N)C(=O)N[C@@H](CCC(=O)O)C(=O)N[C@@H](CCC(N)=O)C(=O)N[C@@H](C)C(=O)N[C@@H](CCC(=O)O)C(=O)N[C@H](C(=O)N[C@@H](CC(N)=O)C(=O)NC(C)(C)C(=O)N[C@@H](CCC(N)=O)C(=O)N[C@H](C(=O)N[C@@H](CC(C)C)C(=O)N[C@@H](C)C(=O)N[C@@H](CCC(N)=O)C(=O)N[C@H](C(N)=O)C(C)C)[C@@H](C)CC)[C@@H](C)O)[C@@H](C)CC)[C@@H](C)CC)C(C)C)C(C)C
# B5: SEQ ID NO 200 (peptide)
# peptide: [NMeI]VLSLD[dV]PIKLK([AEEA-AEEA-γGlu-C18 diacid])KILLEQEKQK[Aib]QREQAETN[Aib]QILAQV-NH2
# modifications: N-terminus assumed
# SMILES: CC[C@H](C)[C@H](NC)C(=O)N[C@H](C(=O)N[C@@H](CC(C)C)C(=O)N[C@@H](CO)C(=O)N[C@@H](CC(C)C)C(=O)N[C@@H](CC(=O)O)C(=O)N[C@@H](C(=O)N1CCC[C@H]1C(=O)N[C@H](C(=O)N[C@@H](CCCCN)C(=O)N[C@@H](CC(C)C)C(=O)N[C@@H](CCCCNC(=O)COCCOCCNC(=O)COCCOCCNC(=O)CC[C@H](NC(=O)CCCCCCCCCCCCCCCCC(=O)O)C(=O)O)C(=O)N[C@@H](CCCCN)C(=O)N[C@H](C(=O)N[C@@H](CC(C)C)C(=O)N[C@@H](CC(C)C)C(=O)N[C@@H](CCC(=O)O)C(=O)N[C@@H](CCC(N)=O)C(=O)N[C@@H](CCC(=O)O)C(=O)N[C@@H](CCCCN)C(=O)N[C@@H](CCC(N)=O)C(=O)N[C@@H](CCCCN)C(=O)NC(C)(C)C(=O)N[C@@H](CCC(N)=O)C(=O)N[C@@H](CCCNC(=N)N)C(=O)N[C@@H](CCC(=O)O)C(=O)N[C@@H](CCC(N)=O)C(=O)N[C@@H](C)C(=O)N[C@@H](CCC(=O)O)C(=O)N[C@H](C(=O)N[C@@H](CC(N)=O)C(=O)NC(C)(C)C(=O)N[C@@H](CCC(N)=O)C(=O)N[C@H](C(=O)N[C@@H](CC(C)C)C(=O)N[C@@H](C)C(=O)N[C@@H](CCC(N)=O)C(=O)N[C@H](C(N)=O)C(C)C)[C@@H](C)CC)[C@@H](C)O)[C@@H](C)CC)[C@@H](C)CC)C(C)C)C(C)C
# B6: SEQ ID NO 201 (peptide)
# peptide: Pentanoyl-VLSLD[dV]PIKLK([AEEA-AEEA-γGlu-C18 diacid])KILLEQEKQKKQREQAETN[Aib]QILAQV-NH2
# SMILES: CCCCC(=O)N[C@H](C(=O)N[C@@H](CC(C)C)C(=O)N[C@@H](CO)C(=O)N[C@@H](CC(C)C)C(=O)N[C@@H](CC(=O)O)C(=O)N[C@@H](C(=O)N1CCC[C@H]1C(=O)N[C@H](C(=O)N[C@@H](CCCCN)C(=O)N[C@@H](CC(C)C)C(=O)N[C@@H](CCCCNC(=O)COCCOCCNC(=O)COCCOCCNC(=O)CC[C@H](NC(=O)CCCCCCCCCCCCCCCCC(=O)O)C(=O)O)C(=O)N[C@@H](CCCCN)C(=O)N[C@H](C(=O)N[C@@H](CC(C)C)C(=O)N[C@@H](CC(C)C)C(=O)N[C@@H](CCC(=O)O)C(=O)N[C@@H](CCC(N)=O)C(=O)N[C@@H](CCC(=O)O)C(=O)N[C@@H](CCCCN)C(=O)N[C@@H](CCC(N)=O)C(=O)N[C@@H](CCCCN)C(=O)N[C@@H](CCCCN)C(=O)N[C@@H](CCC(N)=O)C(=O)N[C@@H](CCCNC(=N)N)C(=O)N[C@@H](CCC(=O)O)C(=O)N[C@@H](CCC(N)=O)C(=O)N[C@@H](C)C(=O)N[C@@H](CCC(=O)O)C(=O)N[C@H](C(=O)N[C@@H](CC(N)=O)C(=O)NC(C)(C)C(=O)N[C@@H](CCC(N)=O)C(=O)N[C@H](C(=O)N[C@@H](CC(C)C)C(=O)N[C@@H](C)C(=O)N[C@@H](CCC(N)=O)C(=O)N[C@H](C(N)=O)C(C)C)[C@@H](C)CC)[C@@H](C)O)[C@@H](C)CC)[C@@H](C)CC)C(C)C)C(C)C
# Target: T1, CRF1R receptor (UniProt P34998 24-415, limits assumed)
# T1 sequence (looked up): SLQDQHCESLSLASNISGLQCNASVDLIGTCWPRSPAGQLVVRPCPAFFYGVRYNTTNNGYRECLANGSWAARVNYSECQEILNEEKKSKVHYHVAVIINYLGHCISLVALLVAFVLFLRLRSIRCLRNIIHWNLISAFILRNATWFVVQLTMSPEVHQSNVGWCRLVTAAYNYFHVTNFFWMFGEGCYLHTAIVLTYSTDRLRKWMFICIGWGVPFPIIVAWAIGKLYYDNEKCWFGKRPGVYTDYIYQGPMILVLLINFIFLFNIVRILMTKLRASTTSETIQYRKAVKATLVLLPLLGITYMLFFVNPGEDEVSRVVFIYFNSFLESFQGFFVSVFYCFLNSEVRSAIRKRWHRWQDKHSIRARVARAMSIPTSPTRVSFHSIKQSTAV
# Experiment: cell-based or functional assay
Binder,Emax (% I) [%],EC50 [nM]
B1,10,
B2,42,180
B3,9,
B4,5,
Ac-IVLSLD[dV]PIKLK([AEEA-AEEA-γGlu-C18 diacid])KILLEQEKQKKQREQAETN[Thp′]QILAQV-NH2 [SEQ ID NO 198],8,> 250
B5,2,
B6,5,

# Target: human corticotropin-releasing factor 2a (CRF2a receptor) (human), Q13324
# Experiment: cell-based or functional assay
# Chain of human corticotropin-releasing factor 2a (CRF2a receptor) (human), Q13324 (Q13324 20-411): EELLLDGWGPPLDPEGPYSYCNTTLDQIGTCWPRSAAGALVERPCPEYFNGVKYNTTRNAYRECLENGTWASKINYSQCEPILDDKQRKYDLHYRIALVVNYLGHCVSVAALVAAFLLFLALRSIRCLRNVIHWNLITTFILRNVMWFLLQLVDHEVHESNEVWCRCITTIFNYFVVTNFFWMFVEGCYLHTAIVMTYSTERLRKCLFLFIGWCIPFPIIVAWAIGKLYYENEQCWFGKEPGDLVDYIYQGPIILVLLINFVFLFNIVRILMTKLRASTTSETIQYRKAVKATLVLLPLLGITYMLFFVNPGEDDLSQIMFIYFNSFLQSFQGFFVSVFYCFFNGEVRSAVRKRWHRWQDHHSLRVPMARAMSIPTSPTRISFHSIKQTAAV
row,Binder,EC50 [nM] (cAMP)
1,B1,0.44
2,B2,0.21
3,B3,2.2
4,B4,1.28
5,Ac-IVLSLD[dV]PIKLK([AEEA-AEEA-γGlu-C18 diacid])KILLEQEKQKKQREQAETN[Thp′]QILAQV-NH2 [SEQ ID NO 198],1.7
6,B5,0.71
7,B6,1.37
